The text below walks through data of US20170030911.

Data set [1] addresses T1, recombinant human biglycan, P21810.
T1 chain: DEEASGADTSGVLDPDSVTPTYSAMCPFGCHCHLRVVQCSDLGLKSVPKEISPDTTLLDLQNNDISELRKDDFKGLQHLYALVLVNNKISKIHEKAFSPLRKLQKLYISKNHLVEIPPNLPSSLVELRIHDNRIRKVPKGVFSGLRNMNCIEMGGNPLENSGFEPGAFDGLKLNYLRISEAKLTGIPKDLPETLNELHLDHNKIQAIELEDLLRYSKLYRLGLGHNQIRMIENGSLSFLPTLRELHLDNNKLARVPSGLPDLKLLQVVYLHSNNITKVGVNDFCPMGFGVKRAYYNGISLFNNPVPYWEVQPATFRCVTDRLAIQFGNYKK

Data set [2] deals with recombinant human neurocan, O14594.
The target in data set [3] is native human plasma fibronectin, P02751.
For data set [4], the target named is T2, recombinant human E-cadherin, P12830.
T2 chain: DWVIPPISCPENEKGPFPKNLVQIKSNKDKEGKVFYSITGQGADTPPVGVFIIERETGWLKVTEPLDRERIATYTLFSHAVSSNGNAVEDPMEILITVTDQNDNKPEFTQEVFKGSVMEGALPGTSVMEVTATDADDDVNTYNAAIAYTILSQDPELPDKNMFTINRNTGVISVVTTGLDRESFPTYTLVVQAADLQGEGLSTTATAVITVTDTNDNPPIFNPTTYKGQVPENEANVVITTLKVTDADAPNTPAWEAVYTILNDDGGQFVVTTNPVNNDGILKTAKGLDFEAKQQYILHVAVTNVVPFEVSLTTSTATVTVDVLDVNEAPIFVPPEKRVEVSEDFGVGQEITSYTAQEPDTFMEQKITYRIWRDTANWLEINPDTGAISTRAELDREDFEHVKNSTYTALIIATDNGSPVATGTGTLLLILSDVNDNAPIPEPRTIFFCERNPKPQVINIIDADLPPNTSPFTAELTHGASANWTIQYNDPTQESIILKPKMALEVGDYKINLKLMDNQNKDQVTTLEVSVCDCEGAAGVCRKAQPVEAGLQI

Data set [5] deals with T3, recombinant human brevican, Q96GW7.
T3 chain: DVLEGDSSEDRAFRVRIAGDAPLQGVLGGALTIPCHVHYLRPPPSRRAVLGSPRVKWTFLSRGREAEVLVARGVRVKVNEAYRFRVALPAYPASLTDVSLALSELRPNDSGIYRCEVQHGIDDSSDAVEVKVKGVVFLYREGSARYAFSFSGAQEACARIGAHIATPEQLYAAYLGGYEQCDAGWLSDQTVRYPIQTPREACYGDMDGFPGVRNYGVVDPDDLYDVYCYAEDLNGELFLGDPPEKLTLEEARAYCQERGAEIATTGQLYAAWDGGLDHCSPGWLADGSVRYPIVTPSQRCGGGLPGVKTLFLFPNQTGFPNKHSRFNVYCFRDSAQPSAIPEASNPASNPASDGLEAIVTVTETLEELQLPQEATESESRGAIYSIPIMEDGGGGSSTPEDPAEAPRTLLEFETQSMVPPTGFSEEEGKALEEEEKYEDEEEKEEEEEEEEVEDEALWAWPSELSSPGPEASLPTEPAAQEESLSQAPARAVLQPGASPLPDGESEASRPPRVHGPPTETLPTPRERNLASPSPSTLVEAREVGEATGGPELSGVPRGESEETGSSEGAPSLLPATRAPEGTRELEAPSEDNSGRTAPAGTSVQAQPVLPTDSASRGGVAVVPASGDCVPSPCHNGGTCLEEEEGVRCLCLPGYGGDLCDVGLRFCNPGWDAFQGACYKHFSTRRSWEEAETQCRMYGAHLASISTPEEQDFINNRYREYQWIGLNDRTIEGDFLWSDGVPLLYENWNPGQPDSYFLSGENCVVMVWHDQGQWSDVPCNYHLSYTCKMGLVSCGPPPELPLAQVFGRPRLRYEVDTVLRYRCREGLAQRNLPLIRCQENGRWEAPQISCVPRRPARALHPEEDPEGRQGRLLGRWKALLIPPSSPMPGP

Data set [6] concerns the target T4, native bovine biglycan, P21809.
T4 chain: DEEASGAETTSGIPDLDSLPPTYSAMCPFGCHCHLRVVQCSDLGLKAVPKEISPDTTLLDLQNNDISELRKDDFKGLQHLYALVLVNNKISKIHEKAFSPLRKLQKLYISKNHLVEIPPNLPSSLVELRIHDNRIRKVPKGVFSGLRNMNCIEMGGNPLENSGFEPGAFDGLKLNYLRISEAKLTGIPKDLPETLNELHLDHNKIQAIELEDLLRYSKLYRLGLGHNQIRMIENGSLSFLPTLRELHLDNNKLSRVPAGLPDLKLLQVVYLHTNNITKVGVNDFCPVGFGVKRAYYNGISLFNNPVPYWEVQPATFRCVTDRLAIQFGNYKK

For data set [7], the target named is recombinant human aggrecan (G1-IGD-G2 domains), P16112.
For data set [8], the target named is native bovine aggrecan, fully glycosylated, P13608.
For data set [9], the target named is T5, native bovine decorin, P21793.
T5 chain: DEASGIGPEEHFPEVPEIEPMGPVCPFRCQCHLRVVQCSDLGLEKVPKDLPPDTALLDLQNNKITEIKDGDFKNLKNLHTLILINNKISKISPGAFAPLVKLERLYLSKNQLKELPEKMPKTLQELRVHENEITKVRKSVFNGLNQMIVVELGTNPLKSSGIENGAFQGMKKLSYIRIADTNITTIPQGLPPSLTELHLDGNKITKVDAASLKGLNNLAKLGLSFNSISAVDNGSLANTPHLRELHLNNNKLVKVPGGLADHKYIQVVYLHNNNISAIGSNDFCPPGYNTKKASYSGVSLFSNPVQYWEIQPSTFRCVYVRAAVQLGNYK

Data set [10] has as its target recombinant human versican, P13611.
For data set [11], the target named is β-casein (in 12% β-casein Zymogram Ready Gels, Bio-Rad).
In data set [12] the target is T6, recombinant human decorin, P07585.
T6 chain: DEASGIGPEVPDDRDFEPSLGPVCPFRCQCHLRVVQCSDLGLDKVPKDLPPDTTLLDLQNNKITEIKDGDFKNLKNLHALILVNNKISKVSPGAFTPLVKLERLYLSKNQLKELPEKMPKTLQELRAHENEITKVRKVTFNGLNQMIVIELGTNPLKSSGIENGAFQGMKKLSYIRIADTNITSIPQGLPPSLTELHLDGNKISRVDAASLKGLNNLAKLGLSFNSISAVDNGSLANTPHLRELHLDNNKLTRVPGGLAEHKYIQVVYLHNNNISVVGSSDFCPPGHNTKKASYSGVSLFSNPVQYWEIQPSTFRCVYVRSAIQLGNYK

Numbering of substitutions follows the chain as printed. Names may count otherwise.

recombinant human aggrecan (G1-IGD-G2 domains), P16112, sequence (P16112 20-675): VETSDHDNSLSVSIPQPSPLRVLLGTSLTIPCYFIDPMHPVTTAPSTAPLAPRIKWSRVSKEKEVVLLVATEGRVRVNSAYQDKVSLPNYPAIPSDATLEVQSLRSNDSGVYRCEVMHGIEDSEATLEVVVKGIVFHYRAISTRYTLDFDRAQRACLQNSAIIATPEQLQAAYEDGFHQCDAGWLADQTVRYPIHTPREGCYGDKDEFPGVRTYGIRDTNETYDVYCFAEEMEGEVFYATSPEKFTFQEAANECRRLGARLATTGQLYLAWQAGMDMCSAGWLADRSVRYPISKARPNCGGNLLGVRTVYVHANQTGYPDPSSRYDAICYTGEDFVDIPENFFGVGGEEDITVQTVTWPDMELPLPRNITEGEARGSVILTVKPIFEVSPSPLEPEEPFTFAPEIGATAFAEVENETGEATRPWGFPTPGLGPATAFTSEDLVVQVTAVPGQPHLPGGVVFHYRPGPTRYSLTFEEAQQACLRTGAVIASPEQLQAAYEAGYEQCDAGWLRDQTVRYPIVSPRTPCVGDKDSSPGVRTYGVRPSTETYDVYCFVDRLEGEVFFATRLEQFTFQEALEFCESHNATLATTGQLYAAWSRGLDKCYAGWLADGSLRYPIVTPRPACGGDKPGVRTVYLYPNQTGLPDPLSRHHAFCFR
recombinant human neurocan, O14594, sequence (O14594 23-1321): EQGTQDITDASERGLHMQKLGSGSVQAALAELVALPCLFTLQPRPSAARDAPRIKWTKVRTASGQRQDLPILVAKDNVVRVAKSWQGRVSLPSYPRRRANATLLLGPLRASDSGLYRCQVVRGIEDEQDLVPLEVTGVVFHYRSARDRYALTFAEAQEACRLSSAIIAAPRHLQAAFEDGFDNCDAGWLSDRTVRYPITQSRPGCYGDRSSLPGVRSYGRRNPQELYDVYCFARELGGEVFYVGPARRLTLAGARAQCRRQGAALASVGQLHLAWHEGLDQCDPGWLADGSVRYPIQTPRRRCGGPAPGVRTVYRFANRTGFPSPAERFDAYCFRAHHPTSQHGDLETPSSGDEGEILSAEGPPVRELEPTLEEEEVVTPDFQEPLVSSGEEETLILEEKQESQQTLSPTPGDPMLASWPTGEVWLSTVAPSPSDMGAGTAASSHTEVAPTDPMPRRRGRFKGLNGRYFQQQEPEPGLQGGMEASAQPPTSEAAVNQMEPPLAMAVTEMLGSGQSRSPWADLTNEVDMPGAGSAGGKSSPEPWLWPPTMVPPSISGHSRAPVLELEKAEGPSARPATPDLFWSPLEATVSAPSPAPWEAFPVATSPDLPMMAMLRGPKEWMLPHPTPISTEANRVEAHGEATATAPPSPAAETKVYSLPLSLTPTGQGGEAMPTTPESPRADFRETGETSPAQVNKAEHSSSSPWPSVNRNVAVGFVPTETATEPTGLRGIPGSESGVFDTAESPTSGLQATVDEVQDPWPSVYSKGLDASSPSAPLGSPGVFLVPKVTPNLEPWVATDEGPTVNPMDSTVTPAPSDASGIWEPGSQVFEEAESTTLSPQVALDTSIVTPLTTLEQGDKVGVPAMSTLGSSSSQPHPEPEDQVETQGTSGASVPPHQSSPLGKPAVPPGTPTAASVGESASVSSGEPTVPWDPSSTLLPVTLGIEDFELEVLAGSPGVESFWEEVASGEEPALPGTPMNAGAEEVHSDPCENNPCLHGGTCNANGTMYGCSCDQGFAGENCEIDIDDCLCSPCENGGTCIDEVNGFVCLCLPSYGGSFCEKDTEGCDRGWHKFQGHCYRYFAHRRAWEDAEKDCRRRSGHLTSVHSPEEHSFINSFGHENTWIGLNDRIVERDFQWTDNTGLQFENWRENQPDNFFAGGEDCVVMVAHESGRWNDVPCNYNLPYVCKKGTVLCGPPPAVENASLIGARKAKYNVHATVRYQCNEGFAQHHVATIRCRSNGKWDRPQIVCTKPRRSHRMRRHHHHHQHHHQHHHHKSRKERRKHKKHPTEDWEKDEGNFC
native human plasma fibronectin, P02751, sequence (P02751 other isoform, or with tags, fused parts or gaps): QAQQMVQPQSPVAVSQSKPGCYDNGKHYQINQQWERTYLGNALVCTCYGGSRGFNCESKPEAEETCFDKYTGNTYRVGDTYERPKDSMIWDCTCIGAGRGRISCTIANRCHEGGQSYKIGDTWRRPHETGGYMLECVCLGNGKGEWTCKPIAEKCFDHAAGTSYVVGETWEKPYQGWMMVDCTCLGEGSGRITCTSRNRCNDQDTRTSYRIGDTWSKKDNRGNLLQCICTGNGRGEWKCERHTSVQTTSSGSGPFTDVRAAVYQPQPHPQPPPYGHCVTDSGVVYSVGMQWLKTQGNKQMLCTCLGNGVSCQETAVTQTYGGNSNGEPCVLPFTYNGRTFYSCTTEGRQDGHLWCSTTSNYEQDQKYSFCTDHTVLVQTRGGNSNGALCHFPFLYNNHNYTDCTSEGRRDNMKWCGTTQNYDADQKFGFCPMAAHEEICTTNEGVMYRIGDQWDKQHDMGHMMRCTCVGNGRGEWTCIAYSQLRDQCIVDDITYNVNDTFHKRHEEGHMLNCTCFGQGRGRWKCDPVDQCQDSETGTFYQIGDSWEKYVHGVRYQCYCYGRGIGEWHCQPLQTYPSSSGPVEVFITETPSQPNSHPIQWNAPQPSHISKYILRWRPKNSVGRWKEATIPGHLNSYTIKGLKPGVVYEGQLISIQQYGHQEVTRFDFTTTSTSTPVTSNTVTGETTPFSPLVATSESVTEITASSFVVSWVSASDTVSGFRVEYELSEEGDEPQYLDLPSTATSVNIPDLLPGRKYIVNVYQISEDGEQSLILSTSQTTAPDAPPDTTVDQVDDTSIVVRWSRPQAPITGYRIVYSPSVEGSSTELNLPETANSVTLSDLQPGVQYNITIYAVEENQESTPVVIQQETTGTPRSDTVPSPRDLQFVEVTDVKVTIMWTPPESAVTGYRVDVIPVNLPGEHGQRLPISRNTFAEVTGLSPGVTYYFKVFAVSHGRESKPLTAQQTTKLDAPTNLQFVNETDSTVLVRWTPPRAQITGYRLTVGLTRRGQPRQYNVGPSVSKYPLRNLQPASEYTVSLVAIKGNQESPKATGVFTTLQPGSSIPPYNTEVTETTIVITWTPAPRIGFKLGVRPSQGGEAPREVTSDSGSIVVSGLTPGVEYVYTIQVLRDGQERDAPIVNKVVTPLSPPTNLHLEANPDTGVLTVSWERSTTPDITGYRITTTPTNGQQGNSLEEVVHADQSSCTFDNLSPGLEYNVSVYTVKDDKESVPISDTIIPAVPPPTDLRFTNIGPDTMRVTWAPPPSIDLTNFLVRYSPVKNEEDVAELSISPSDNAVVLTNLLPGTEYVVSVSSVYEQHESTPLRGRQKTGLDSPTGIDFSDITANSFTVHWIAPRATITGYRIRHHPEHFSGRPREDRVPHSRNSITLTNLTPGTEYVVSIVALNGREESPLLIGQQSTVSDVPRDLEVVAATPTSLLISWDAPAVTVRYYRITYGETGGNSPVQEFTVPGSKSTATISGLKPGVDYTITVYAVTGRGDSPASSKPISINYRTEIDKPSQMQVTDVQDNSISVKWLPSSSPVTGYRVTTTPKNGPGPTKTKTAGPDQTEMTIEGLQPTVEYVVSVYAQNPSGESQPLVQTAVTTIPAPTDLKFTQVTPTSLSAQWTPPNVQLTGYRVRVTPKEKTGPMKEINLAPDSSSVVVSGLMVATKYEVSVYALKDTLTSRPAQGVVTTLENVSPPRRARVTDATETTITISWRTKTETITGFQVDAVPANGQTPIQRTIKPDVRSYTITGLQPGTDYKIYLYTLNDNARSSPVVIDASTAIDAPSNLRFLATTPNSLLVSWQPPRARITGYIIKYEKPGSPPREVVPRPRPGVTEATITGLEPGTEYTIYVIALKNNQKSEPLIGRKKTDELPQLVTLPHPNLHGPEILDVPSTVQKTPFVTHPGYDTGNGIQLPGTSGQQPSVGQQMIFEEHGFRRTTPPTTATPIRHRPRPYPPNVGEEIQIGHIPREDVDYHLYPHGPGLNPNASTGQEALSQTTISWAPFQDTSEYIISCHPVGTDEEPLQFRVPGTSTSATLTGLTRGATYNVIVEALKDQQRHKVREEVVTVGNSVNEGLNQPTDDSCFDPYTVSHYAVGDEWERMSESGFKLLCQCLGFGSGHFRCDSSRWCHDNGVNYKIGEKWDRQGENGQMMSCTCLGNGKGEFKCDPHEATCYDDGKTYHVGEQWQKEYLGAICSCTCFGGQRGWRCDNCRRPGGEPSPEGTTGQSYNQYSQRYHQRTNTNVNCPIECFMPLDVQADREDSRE

B1: Borrelia burgdorferi HtrA (BB0104, BbHtrA), recombinant wild type mature protein (amino acids 38-474), His-tagged, made in E. coli (protein)
chain: EEKDNTVRALQDSFREVSKKILPSSVEVHATGVIKQSFPIPFFFFDMPEFDSERKSNWAGSGVIIGRDSQKKSLFYVVTNSHVVDKATELEVVSYDKKKHKAKLIGKDEKKDIALISFESDDATIKVADLGDSDKLEIGDWVMAVGSPFQFSFTVTAGIVSGLQRSANPNLQSRNLFIQTDAAINRGNSGGPLVNIKGEVIGINAWIASNSGGNIGLGFAIPVNNIKSTVDFFLKGKKIESAWLGISFYPLKTRDSEVLKSLGVESNDVSAAIIASLYPGSPAVKSGLRAGDIIMKVNGVSMSVFQDVTSYISDFYAGEKVNVEILRGNVKKNIEIVLAVRPKDKELSSSKMLPGFVVYPLVEDIKAQLNLRNWIKGVVVDYIDKNLASNIKMKSGDVILSVNSKSVSNLREFYDALEVGKNTYKILRGNDSFKITF
With B1, the Proteolytic activity entry in data set [1], in data set [2], in data set [3], in [4], in data set [5] and in [6] was “+” in each case. Also, the Proteolytic activity entry (in data set [7]; in data set [8]; in data set [9]; in data set [10]; in the data set with native bovine casein; in data set [12]) was “+” in each case. The β-casein zymography result in data set [11] is “Recombinant BbHtrA was proteolytically active against β-casein as evidenced by clearing around the protein band”.

B2: Borrelia burgdorferi HtrA (BB0104, BbHtrA^S226A), recombinant inactive mutant, mature protein (amino (protein)
chain: B1 chain with S189A
For the protein B2, the “proteolytic fragments on silver-stained SDS-PAGE” value in data set [7] was “incubation of recombinant aggrecan (FIG. 4A, lane 1) alone or with the inactive mutant (FIG. 4A, lane 6) failed to generate these fragments”.
